Assay results reported in paper PMC8460140, “Identification of BiP as a CB1 Receptor-Interacting Protein That Fine-Tunes Cannabinoid Signaling in the Mouse Brain” (The Journal of Neuroscience, 2021).

Biological target: T1, His6-tagged BiP-IR (amino acids 497-654), recombinant (UniProt P11021 497-654)
T1 construct: BiP (GRP78, Hspa5), amino acids 497-654; pBH4 vector; also called unlabeled BiP-IR
T1 sequence (looked up): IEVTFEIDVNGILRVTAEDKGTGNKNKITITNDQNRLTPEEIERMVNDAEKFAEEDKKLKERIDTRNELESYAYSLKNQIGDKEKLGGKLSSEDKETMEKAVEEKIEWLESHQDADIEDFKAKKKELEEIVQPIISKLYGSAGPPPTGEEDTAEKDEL
Assay: fluorescence polarisation; saturation binding: constant 100 nM 5-IAF-CB1R-CTD, increasing amounts of unlabeled BiP or BiP-IR
Conditions: both partners purified

binding result: binds
B1: His6-tagged CB1R-CTD (amino acids 400-472), labeled with 5-IAF (domain or fragment, UniProt P21554 400-472, looked up)
chain: RSKDLRHAFRSMFPSCEGTAQPLDNSMGDSDCLHKHANNAASVHRAAESCIKSTVKIAKVTMSVSTDTSAEAL
modifications: labeled with 5-(iodoacetamido)fluorescein (5-IAF); labeled residue not stated
notes: pBH4 vector; also called 5-IAF-CB1R-CTD; 5-IAF-labeled CB1R-CTD
